In US20050008628A1:

Target: mutant voltage gated potassium channel (Kv1.3)
Experiment: cell-based or functional assay

Substance: Margatoxin (from UniProt P40755 1-39) (peptide)
- local ventricular effective refractory period (ERP) at graft site after MTx, one rat (170 ms before MTx): 100 ms
